Source: US20200255487A1, “A Cell-Based Seeding Assay for Huntingtin Aggregation” (THE REGENTS OF THE UNIVERSITY OF CALIFORNIA, priority 2017, published 2020)

System: HTT-ΔN17-46Q-GFP
Experiment: cell-based HTT seeding assay (ΔN17-1E cells)
Design: species or system human
Details: ΔN17-1E (HEK293) cells; substance applied as seed; FIG. 4
Text: Described herein is the development of a cell-based HTT seeding assay. A DNA construct encoding Exon1 of mutant human HTT with a 46 polyQ repeat was designed (FIG. 1C). This mutant HTT was engineered to delete amino acid residues 2-16 and was fused with a green fluorescent protein (GFP) at its C-terminus, named HTT-ΔN17-46Q-GFP hereafter. The HTT-ΔN17-46Q-GFP was then cloned into a pcDNA3 vector and transfected into HEK293 cells. Clones of stably transfected cells expressing HTT-ΔN17-46Q-GFP were selected to generate individual cell lines. Expression of the transgene in the cell lines was characterized to confirm its morphology, expression level and subcellular localization. Line 1E, named ΔN17-1E cells, was selected based on it moderate transgene expression with minimal protein aggregates at the baseline. Based on this cell line, a cell-based HTT seeding assay was developed. Extracellular application of preformed HTT aggregates or biosamples from HD patients as “seeds”, to ΔN17-1E cells could induce intracellular aggregation of HTT-ΔN17-46Q-GFP proteins (FIG. 1 through FIG. 3). […] Currently, the assay has been optimized to be performed in a high-throughput format, making it more capable with large quantity of samples. […]

B1: preformed mHTT-exon1 seeds: preformed mHTT-exon1 seeds derived from in vitro formed mHTT fibrils by sonication (protein)
chain: MATLEKLMKAFESLKSFQQQQQQQQQQQQQQQQQQQQQPPPPPPPPPPPQLPQPPPQAQPLLPQPQPPPPPPPPPPGPAVAEEPLHRP
- induction of intracellular HTT-ΔN17-46Q-GFP aggregation by extracellularly applied seeds: forms HTT-ΔN17-46Q-GFP aggregates
